Test results from EP4603109A1 (Sichuan Kelun-Biotech Biopharmaceutical Co., Ltd., dated 2024).

Experiments:
[1] = molecular target: T1, B7-H3 on human tumor cell lines (HT29, NCI-N87, HCC1806, HCC827, A375) (human, UniProt Q5ZPR3 29-534); assay: flow cytometry on HT29 cells (experiment 2)
T1 construct: whole, on cells
T1 sequence (looked up): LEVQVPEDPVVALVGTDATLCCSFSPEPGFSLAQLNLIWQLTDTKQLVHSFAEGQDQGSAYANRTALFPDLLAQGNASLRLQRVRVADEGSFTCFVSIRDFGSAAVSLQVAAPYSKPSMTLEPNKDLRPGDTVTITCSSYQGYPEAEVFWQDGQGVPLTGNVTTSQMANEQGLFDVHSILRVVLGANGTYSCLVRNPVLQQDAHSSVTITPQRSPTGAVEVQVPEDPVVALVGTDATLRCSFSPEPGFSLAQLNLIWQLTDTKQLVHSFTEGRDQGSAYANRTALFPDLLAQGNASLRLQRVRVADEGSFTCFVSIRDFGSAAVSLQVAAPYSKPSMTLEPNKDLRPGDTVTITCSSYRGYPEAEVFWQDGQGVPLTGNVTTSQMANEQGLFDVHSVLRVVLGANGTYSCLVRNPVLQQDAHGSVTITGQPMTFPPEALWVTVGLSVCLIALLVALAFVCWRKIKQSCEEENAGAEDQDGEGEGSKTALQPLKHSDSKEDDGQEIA

[2] = molecular target: T1, B7-H3 on human tumor cell lines (HT29, …); assay: flow cytometry on HCC827 cells (experiment 2)
rat B7-H3-his protein = molecular target: T2, rat B7-H3-his protein (rat, UniProt Q7TPB4 29-248, limits assumed); assay: BLI (ForteBio), ADC captured on Protein A sensor (result 2)
T2 construct: not shown: His tag
T2 sequence (looked up): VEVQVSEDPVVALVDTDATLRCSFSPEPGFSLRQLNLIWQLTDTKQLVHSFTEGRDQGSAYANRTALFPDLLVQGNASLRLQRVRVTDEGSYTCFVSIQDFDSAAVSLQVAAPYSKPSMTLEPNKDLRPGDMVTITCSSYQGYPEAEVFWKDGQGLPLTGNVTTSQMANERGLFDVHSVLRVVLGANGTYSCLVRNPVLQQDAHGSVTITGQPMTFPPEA

[3] = molecular target: T3, human B7-H3-2Ig-his protein (human, UniProt Q5ZPR3-2 29-245, limits assumed); assay: BLI (ForteBio), ADC on Protein A sensor, antigen 200-3.125 nM, 1:1 global fit (result 2)
T3 construct: the 2Ig form is its isoform 2; not shown: His tag
T3 sequence (looked up): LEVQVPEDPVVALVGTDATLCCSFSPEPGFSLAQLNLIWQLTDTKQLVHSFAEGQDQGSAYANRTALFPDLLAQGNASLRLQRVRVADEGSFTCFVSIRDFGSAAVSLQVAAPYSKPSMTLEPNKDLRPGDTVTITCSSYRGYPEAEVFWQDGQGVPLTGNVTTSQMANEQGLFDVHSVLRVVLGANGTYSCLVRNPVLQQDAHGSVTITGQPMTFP

monkey B7-H3-his protein = monkey B7-H3-his protein (monkey); assay: as above
[4] = molecular target: T4, human B7-H3-4Ig-his protein (human, UniProt Q5ZPR3 29-461, limits assumed); assay: as above
T4 construct: not shown: His tag
T4 sequence (looked up): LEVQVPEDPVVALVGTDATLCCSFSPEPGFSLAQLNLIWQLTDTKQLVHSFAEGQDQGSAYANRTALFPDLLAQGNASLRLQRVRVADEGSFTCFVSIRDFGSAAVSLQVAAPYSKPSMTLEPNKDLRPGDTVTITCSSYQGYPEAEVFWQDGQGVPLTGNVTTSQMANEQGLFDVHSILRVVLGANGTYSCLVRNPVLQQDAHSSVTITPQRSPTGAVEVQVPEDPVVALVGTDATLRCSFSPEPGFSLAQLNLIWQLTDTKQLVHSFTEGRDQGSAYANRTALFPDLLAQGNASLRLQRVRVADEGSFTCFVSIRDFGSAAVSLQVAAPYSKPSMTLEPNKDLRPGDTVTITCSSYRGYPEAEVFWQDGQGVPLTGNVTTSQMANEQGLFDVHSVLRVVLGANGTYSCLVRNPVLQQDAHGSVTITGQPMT

EC50 [1]: 3.21 ng/mL
EC50 [2]: 8.05 ng/mL
Kd [3]: 42 nM
Kd (monkey B7-H3-his protein): 2.57 nM
Kd [4]: 1.04 nM
B1: ADC 17 (2#8890-B-03, DAR 8) (antibody, human IgG1, kappa, V domains shown)
VH: QVQLQESGPGLVQPSGTLSLTCAVSGGSDSSTNWWTWVRQSPGQGLEWIGEISPIGFTSYSPSLRSRVTISVDKSKTQFSLKLSSVTAADTAVYYCARDRLYFAFWGQGTLVTVSS
VL: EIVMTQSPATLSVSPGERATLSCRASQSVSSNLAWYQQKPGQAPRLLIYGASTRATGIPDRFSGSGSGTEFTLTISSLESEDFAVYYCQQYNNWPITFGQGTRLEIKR
modifications: cysteine sulfhydryls carry drug-linker B-03 (sites not stated; DAR 7.82 per antibody)
binding result (rat B7-H3-his protein): no binding (tested: 200 nM (highest antigen concentration))
